Laboratory results: publication doi:10.1101/2025.07.23.666440

Biological target: PANA_2924 C-terminal domain after TEV cleavage of the His-TEV tag (Pantoea ananatis LMG 20103) (UniProt D4GKQ2)
Assay: SEC

“PANA_2923 immunity protein (natural protein)” was tested, and the stoichiometry N was 1.
